Source: article PMC7703596

Assays:
[1] = test system: COC(=O)c1ccccc1-c1c2ccc(=N)cc-2oc2cc(N)ccc12; test: uptake kinetics in HeLa cells, flow cytometry; assay type: cell-based, Homo sapiens; conditions: ATP
[2] = test system: COC(=O)c1ccccc1-c1c2ccc(=N)cc-2oc2cc(N)ccc12; test: efflux kinetics in HeLa cells, flow cytometry; assay type: cell-based, Homo sapiens; conditions: ATP

Substance | Km [1] | Km [2]
P-glycoprotein (P-gp) 14A mutant (Homo sapiens; F336A/F343A/L332A/L975A/M986A/S979A/V331A/V334A/V338A/V345A/V974A/V977A/V981A/V982A) | 1.69 ± 0.12 µM | 
P-glycoprotein (P-gp) (Homo sapiens) |  | 2.98 ± 0.51 µM
